Measured values: patent publication US20210349096A1

Target: LILRB4 on human monocytic AML THP-1 cells (human) (UniProt Q8NHJ6)
Test: flow cytometry, anti-His tag-APC alone on wild-type THP-1 cells (negative control); lilrb4-knockout THP-1 cells in the same panel: KO 0.9% [panel e]

Chain of LILRB4 on human monocytic AML THP-1 cells (human) (Q8NHJ6 22-448): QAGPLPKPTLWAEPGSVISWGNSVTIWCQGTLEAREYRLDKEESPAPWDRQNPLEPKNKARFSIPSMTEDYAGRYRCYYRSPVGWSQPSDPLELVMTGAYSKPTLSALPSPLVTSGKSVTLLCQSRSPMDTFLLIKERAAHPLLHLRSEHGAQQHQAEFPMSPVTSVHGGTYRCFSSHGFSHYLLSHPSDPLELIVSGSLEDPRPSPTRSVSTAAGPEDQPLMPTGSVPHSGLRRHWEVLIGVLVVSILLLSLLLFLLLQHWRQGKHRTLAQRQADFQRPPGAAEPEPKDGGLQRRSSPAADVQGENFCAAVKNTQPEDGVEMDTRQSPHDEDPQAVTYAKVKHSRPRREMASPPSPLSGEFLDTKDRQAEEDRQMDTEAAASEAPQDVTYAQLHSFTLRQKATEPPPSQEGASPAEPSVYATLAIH

## Ctrl (anti-His tag-APC) (antibody)
  % of cells in the positive gate: 0.4%
